Laboratory results published in patent publication US20200131274A1 (CRESCENDO BIOLOGICS, published 2020).
Several values for one entry are separate records, joined by “and”; a condition that tells them apart may be missing. Identical values can stand only once.

How the values were obtained:
[1] = target: T1, recombinant human PSMA (R&D, cat. no. 4234-ZN) (human, UniProt Q04609 44-750); assay: Octet RED384 BLI, PSMA on sensor, Table 21 c; Table 21 part c), not part b) (0.85 nM for clone 1.8)
T1 construct: Bought protein; also called rhPSMA; Recombinant PMSA

[2] = target: T2, human prostate specific membrane antigen (PSMA), full-length, on cells (human, UniProt Q04609 1-750); assay: FMAT direct cell binding, CHO human PSMA cells
T2 construct: also called huPSMA; human PSMA

[3] = target: T2, human prostate specific membrane …; assay: FMAT cell binding, huPSMA CHO 1A10 cells, after 7 days in human serum at 37 C
[4] = target: T2, human prostate specific membrane …; assay: FMAT direct cell binding, DU145 PSMA cells
[5] = target: T2, human prostate specific membrane …; assay: FMAT cell binding, huPSMA CHO 1A10 cells, after 0 days in human serum at 37 C
[6] = target: T2, human prostate specific membrane …; assay: cell-based or functional assay
[7] = target: T2, human prostate specific membrane …; assay: FMAT direct cell binding, LNCap cells
[8] = target: T2, human prostate specific membrane …; assay: FMAT cell binding, huPSMA CHO 1A10 cells, after 1 day in human serum at 37 C
[9] = target: T2, human prostate specific membrane …; assay: cell-based or functional assay; remark: listed apart in the source
[10] = target: T3, cynomolgus PSMA, full-length, on CHO cells (cynomolgus, UniProt A0A2K5VNZ0 1-750); assay: cell-based or functional assay
[11] = target: T1, recombinant human PSMA (R&D, cat. no. …); assay: Octet RED384 BLI, PSMA on sensor, Table 21 b
[12] = target: T3, cynomolgus PSMA, full-length, on CHO …; assay: FMAT direct cell binding, CHO cyno PSMA cells
[13] = target: T1, recombinant human PSMA (R&D, cat. no. …); assay: Octet RED384 BLI, PSMA on sensor, Table 21 c
[14] = target: T2, human prostate specific membrane …; assay: FMAT cell binding, huPSMA CHO 1A10 cells, after 4 days in human serum at 37 C
[15] = target: T1, recombinant human PSMA (R&D, cat. no. …); assay: Octet RED384 BLI, PSMA on sensor, VH series from 0.375 ug/ml
[16] = target: T2, human prostate specific membrane …; assay: FMAT cell binding, huPSMA CHO 1A10 cells, after 0 days in human serum at 37 C; remark: listed apart in the source
[17] = target: T1, recombinant human PSMA (R&D, cat. no. …); assay: HTRF binding assay: His-Myc tagged VH, 3 nM biotinylated PSMA, streptavidin cryptate and anti-Myc Alexa Fluor 647; VH kept 0-7 days at 37 °C in cynomolgus monkey serum; Delta F% binding signal
[18] = target: T2, human prostate specific membrane …; assay: cell-based or functional assay; remark: listed apart in the source
[19] = target: T3, cynomolgus PSMA, full-length, on CHO …; assay: cell-based or functional assay; remark: listed apart in the source
[20] = target: T3, cynomolgus PSMA, full-length, on CHO …; assay: FMAT direct binding on CHO cells expressing cynomolgus PSMA, VH not heated (4 °C, day 0), FL2 median mean fluorescence
[21] = target: T2, human prostate specific membrane …; assay: FMAT cell binding, huPSMA CHO 1A10 cells, after 1 day in human serum at 37 C; remark: listed apart in the source
[22] = target: T2, human prostate specific membrane …; assay: FMAT cell binding, huPSMA CHO 1A10 cells, after 4 days in human serum at 37 C; remark: listed apart in the source
[23] = target: T3, cynomolgus PSMA, full-length, on CHO …; assay: FMAT Mirrorball direct cell binding, purified His-tagged VH titrated on CHO cells expressing cynomolgus PSMA, FL2 median binding signal [panel cynoPSMA-CHO binding]
[24] = target: T2, human prostate specific membrane …; assay: FMAT cell binding, huPSMA CHO 1A10 cells, after 7 days in human serum at 37 C; remark: listed apart in the source
[25] = target: T1, recombinant human PSMA (R&D, cat. no. …); assay: Octet RED384 BLI, PSMA on sensor, VH series from 0.375 ug/ml; remark: listed apart in the source
[26] = target: T3, cynomolgus PSMA, full-length, on CHO …; assay: FMAT direct binding on CHO cells expressing cynomolgus PSMA, VH kept 8 days at 40 °C, FL2 median mean fluorescence
[27] = target: T1, recombinant human PSMA (R&D, cat. no. …); assay: Octet RED384 BLI, PSMA amine-coupled to sensor, 1:1 model

T1 sequence (Q04609 44-750 limits assumed): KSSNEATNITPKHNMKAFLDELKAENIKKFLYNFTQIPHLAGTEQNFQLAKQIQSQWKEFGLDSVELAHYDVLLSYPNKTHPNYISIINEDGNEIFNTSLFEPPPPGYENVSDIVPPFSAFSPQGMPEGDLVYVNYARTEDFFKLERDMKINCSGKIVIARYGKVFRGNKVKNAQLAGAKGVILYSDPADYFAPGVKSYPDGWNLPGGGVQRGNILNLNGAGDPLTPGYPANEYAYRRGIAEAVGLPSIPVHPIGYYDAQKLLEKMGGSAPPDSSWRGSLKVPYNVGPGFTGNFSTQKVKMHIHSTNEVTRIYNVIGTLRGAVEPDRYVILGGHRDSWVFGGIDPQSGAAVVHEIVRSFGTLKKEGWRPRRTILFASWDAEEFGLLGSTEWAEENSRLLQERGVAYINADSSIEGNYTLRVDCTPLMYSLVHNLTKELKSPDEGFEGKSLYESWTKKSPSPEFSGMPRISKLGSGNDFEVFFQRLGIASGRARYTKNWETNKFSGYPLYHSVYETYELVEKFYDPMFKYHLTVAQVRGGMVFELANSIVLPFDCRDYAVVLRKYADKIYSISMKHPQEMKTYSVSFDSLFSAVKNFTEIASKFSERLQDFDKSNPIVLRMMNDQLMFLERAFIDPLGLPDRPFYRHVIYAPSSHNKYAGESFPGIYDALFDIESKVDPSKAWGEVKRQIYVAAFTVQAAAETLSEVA
T2 sequence (Q04609 whole entry): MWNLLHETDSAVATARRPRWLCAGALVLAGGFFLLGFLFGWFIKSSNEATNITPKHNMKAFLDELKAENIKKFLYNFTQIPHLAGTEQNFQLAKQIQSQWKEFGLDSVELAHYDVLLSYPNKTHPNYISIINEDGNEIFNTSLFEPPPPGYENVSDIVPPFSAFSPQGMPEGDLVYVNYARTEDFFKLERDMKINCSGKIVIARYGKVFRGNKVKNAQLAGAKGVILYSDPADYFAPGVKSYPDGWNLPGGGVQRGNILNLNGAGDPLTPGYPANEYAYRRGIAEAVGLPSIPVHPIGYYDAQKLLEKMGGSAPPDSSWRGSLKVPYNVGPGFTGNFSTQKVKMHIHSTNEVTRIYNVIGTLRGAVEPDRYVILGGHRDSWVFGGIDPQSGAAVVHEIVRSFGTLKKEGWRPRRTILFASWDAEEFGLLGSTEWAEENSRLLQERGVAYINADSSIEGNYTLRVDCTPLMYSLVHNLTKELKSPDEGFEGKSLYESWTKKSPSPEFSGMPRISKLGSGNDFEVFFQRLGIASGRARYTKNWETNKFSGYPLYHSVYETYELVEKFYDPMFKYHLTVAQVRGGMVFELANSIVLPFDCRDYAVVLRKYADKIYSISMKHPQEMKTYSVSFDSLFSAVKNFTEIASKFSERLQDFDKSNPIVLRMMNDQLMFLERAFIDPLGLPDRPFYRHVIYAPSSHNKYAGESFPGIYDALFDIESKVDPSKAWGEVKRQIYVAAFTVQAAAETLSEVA

B1: single VH domain antibody 1.8 (VHH)
VHH: EVQLLESGGGLVQPGGSLRLSCAASGFSFSSYAMSWVRQAPGKGLEWVSSIGENDGTTDYADSVKGRFTISRDNSKNTLYLQMNSLRVEDTAVYYCVKDGVHWGQGTLVTVSS
notes: Human single VH domain antibody (Humabody)
Kd [1]: 1.95 nM
EC50 [2]: 0.103 nM
EC50 [3]: 0.542 nM and 0.27 nM
EC50 [4]: 0.0945 nM
EC50 [5]: 0.409 nM and 0.17 nM
pHrodo Green internalization assay, human PSMA Average EC50 (M) [6]: 5e-10 M and 1.2e-09 M
EC50 [7]: 0.147 nM
EC50 [8]: 0.486 nM and 0.22 nM
His-ZAP cell killing, human PSMA Average EC50 [9]: 0.026 nM and 0.04 nM
His-ZAP cell killing, cyno PSMA EC50 [10]: 1.4 nM
Kd [11]: 0.85 nM
koff [11]: 0.00068 s⁻¹
EC50 [12]: 0.31 nM
koff [13]: 0.00104 s⁻¹
EC50 [14]: 0.496 nM and 0.25 nM
Kd [15]: 1.95 nM
koff [15]: 0.00104 s⁻¹

B2: single VH domain antibody 2.1 (VHH)
VHH: EVQLVESGGGVVQPGRSLRLSCAASGFSFSGYGMHWVRQAPGKGLEWVAYISYDGSNKYYADSVKGRFTISRDNSKNTLYLQMNSLRAEDTAVYYCAKDPAWGLRLGESSSYDFDIWGQGTMVTVSS
notes: Human single VH domain antibody (Humabody); tested with a C-terminal His tag; 71-95; also called VH 2.1; VH2.1
EC50 [16]: 0.249 nM
EC50 [2]: 0.11 nM
EC50 (read off the curve) [17]: ~1 nM
IC50 (read off the curve): His-ZAP saporin cell killing, human-PSMA CHO, % Control (Cell Titer-Glo) [18]: ~0.04 nM
IC50 (read off the curve): His-ZAP saporin cell killing, cyno-PSMA CHO, % Control (Cell Titer-Glo) [19]: ~0.1 nM
EC50 [4]: 0.23 nM
EC50 (read off the curve) [20]: ~2 nM
EC50 [21]: 0.254 nM
EC50 [22]: 0.26 nM
EC50 (read off the curve) [23]: ~0.6 nM
pHrodo Green internalization assay, human PSMA Average EC50 (M) [6]: 8e-10 M
EC50 [24]: 0.301 nM
EC50 [7]: 0.0607 nM
Kd [25]: 0.32 nM
koff [25]: 0.000228 s⁻¹
His-ZAP cell killing, human PSMA Average EC50 [9]: 0.014 nM
His-ZAP cell killing, cyno PSMA EC50 [10]: 0.052 nM
EC50 [12]: 0.367 nM
EC50 (read off the curve) [26]: ~2 nM
Kd [27]: 1.64 nM
koff [27]: 0.000456 s⁻¹
